Results as given in a protein production outcome set (Wang et al. 2014).

Assay: label from the status in PepcDB records
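Note: failed if final PepcDB status was selected cloned or expressed and not failed if soluble or beyond.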

MKKNDLSALQENCFCFCDEEISREAPFQVPIDFPEGFKVDTAEASAAVTWSTDNLSCISEPCLIQTGPEPEDIGVRYAVRVQGTITLLVSVSPVRNQYGQGDGAVSVIHTEEIDQVVYYAAQSGRCPDFSQITVEDLLIVPPFYGSPLTVAGTLVLPPSPDPQSYVFTANTGDSTVSVIDADLNTVVKTIPFSDVPTNLGVTFDKAFTYVLHGNTNLVSVIDNKTLTIINTITVGGGPRKIEFDPTDEFAYVMAAGSIYVINTASQSVIDVIPIPGALDFALDPNGQYVYTANGSSWSVDKYDVNTGQLVESIIDTFEFPSLITTPYAGNFAYVLNGELWPKGVTEISLSPLSRGGDFSRLFETLRTIVFSLDSTRAYFLEPYSEPFLINNLYVVNTARQRIIANVSLPGAFDLAVTPDKQYIYAAQPNDNAVTVYRTSDYTAVTVIPVGAGPSAIAMLEHHHHHH
protein production: failed

MSLTTVGIRGTFFDFVDDPWKHIGNEQAAARFHQDGLMVVTDGVIKAFGPYEKIAAAHPGVEITHIKDRIIVPGFIDGHIHLPQTRVLGAYGEQLLPWLQKSIYPEEIKYKDRNYAREGVKRFLDALLAAGTTTCQAFTSSSPVATEELFEEASRRNMRVIAGLTGIDRNAPAEFIDTPENFYRDSKRLIAQYHDKGRNLYAITPRFAFGASPELLKACQRLKHEHPDCWVNTHISENPAECSGVLVEHPDCQDYLGVYEKFDLVGPKFSGGHGVYLSNNEFRRMSKKGAAVVFCPCSNLFLGSGLFRLGRATDPEHRVKMSFGTDVGGGNRFSMISVLDDAYKVGMCNNTLLDGSIDPSRKDLAEAERNKLSPYRGFWSVTLGGAEGLYIDDKLGNFEPGKEADFVALDPNGGQLAQPWHQSLIADGAGPRTVDEAASMLFAVMMVGDDRCVDETWVMGKRLYKKSEGHHHHHH
protein production: not failed

MATPTQTPTKAPEEPDPFYYDYNTVQTVGMTLATILFLLGILIVISKKVKCRKADSRSESPTCKSCKSELPSSAPGGGGV
protein production: not failed

MLFSIQTCPCQINPALNAVSTPLLYQDCCQPYHDGLYNQEVEDSDAIRADTAEHLMRTRYSAFVLVKPEYIVKTTLPAQQDLLDIKAIENWAKETDWAGLEVVAHTPKLSKRHAQVEFKAYFKTPDGLQAHHELSTFVKIKNKANSDASWYFLDPTVSMSVTQKQPCICGSGEKFKRCCGMYI
protein production: not failed

METKILSNATHKCVLVIDNAQPTGIVANIASVLSMTLGCRVSNIVSHDVYDKQGERHLGITQLPIPILGASQEKIKELRNYFHSLEIEDLVLVDFSTIAQQSRTYDEYEREMYSANEDDLHYVGIGICAEKKAINKATGSLSLIRLEHHHHHH
protein production: failed

MANNELQIAGSQGELRIRPYEHHAKYYETDQMGIIHHSNYVKWMEEARLDLMDQIGLNYRQMEDMEIISPVLSISVEYHSMVHFDDTVVIYTKLLKYNGIKMELEYVMKDKETGELRTTAKSSHCFLNKSGKPISLKRMYPELDTKFFEFKEA
protein production: failed

MDKVSIIIPVYNVQSFLNECIESVLAQTYSNLEIILVNDGSTDNSGDICDYYSEIDGRIFVFHKNNGGLSDARNYGISRATGDYIYLLDSDDYLYKEDAIERMVEFSEKYNSEIVLGCYVEKREQHIINIVLEDEMIETISPVQAIQNIYNYDAYRAIFTVAHNKLYKRELFSTLCYPVGKLHEDEFLTYKLYLKAKNIIFFRYNTYAYRIRENSIMTGSYNIKRLHAVEALKERIYLLEKYPDLVFQSERALIKTMEVNLIELYKNNFYKEFHTLKTEYKKTIFDFIKKQRMLLKIKYYLKYCVVHFKILNCKRKKKINKLEHHHHHH
protein production: not failed

MKGDRHCIVIIDMLNDFIGPNAPLRCPDGEKIVPNLQKLVEFAHENGINVVFVQEAHRKNDADFRVRPVHAVKGTWGSDFIPELRPDEEKGDYIVQKRRHSAFAYTDLDLYLREEKIDTVVVTGVWTNVCVRSTASDALYHAYNVIAISDCCASANEEMHQAGLRDMALFAEVMTLEEYMKEWPNREGAKK
protein production: not failed

MNRKFTARGPKRIEWAPHSCYHRKAHGFRPGTLSARHRSVRTPRSIVGIRTPHPHPNPTDHDFATMTIRQSALFALALGTLGLLALSGCSAGNPNMSAAEDAMEQERYERALANVDSAIAQDSANAQAYAMKARILRQMADSTAPPEAYKQRYRQARQAEEKAIKFDPGRRSDIKNQRELAFIQEFQKGADAFNRAQQSSQKSDYLRAAAYFGAAGAIRPDSTGPIRNEAFARLQAARLEGGDQGMQEMSNVIPILERYLKKEDEPEKDVYSILSQLYRQGDQPERALEVTERALDDLSSRPTHFRIQGTRGLSYTGTIEAGGTSRQVEGTTPDRIELSTSDGMVTGTFRKQDGGKKQTKGRLQVGLYTQGTQVANSRTTALEEITISEDLSSVTPLAELQNQRLSALNSTGNTEKAMQAYRQQIERNPENARYRYNYGSLLLNSDRYDEAIEQLSEAVKLDSDDPKKQYNLGAAYLNKGVVLQDSLVSVRDSVMAQNRKPTQEEAQMIEDLDEQRLQFFQNAIPPLERARQLSGANGRYRQNACSALLQAYVQTEQTDKAEDVKQCAGAGGNTSGGSGGR
protein production: failed

MRVALTIAGSDSGGGAGVQADLKVFFRFGVYGTSALTLVTAQNTLGVQRVHLLPPEVVYAQIESVAQDFPLHAAKTGALGDAAIVEAVAEAVRRFGVRPLVVDPVMVAKSGDPLLAKEAAAALKERLFPLADLVTPNRLEAEALLGRPIRTLKEAEEAAKALLALGPKAVLLKGGHLEGEEAVDLLATRGGVLRFSAPRVHTRNTHGTGCTLSAAIAALLAKGRPLAEAVAEAKAYLTRALKTAPSLGHGHGPLDHWA
protein production: not failed

DDFVSLGTSGWHARVVSTVSDPSEVRQFALPDGGILRIASVLSVGGTADWARSVLLPGVSAKEADALMLQRPRLATGLLSLPSIQGESFPVRSHSVGGCILGMRGNQDPLTLYTAVIEGICMTLAHDIKPGGILPATGGGARSVPWMRILASVTNRNIHVTVSEDAALHGAASLAAYATSAEYLPTLAARAIVEIEPEPEVVASFEPLIAKHLELFRFAAALSY
protein production: failed

MTHRPMLNKIKLFFIVQIILSFLVLAGTLISILVIPSHLPDYFIWAIAFSFWVFQCGFSTIFAFRYRISKSSLSTIKLSFILIGSIQILITLATNLFGIFDLPIFNTLIIKNFQFLILSLIFIVMIYKLIKDMLKYRVLKDYIIRDSFFTFIPFAFIIYKNSKYFISSIYFLDDSVYSLALLNINSLRIFLEGFLIILIFVKTIYLRGNKKSSFLLLIYFYVSNLNCYIVSYFNSKLLFSHYLYQGIGIYFICPILLMLSIYHSITEQEKAPDQVLFDDSYMNINNSWISITIGIFPVSFSAIDIISSSIASGDFNGIESLVIILLVMILLVCRDVILRKDNLRLIASVKRANEIDFLTNMYSRNYFLKKLETINTDYALFFIDIKSFKDINNIFGHVVGDKVLVEVANKFKELKLLLGKNVFYCRYSGNEFALISKLDQVDLILKFFRDLENIKIQHNSDLIHINFNIGYSLNDSNINLDLLIQETDYALMRAKKLKGPNNSILMYDDNLKTDLEHMNILKKDFKNDLLTGKFHLVFQPKVCVKTLKIVGFETLLRWKHDKLGEISPSKFVPIAENLGEISSLDLYVFKKSCEFQRCLIDKGIKLKCSVNLSLNTLKSYEKINEILNIYKEYKIPKHLITAEILENVSLNNNAKTISYINLLRENGICISIDDFGTGYSSLSQISNLYFDELKIPREFVIDARTPSKLAVIEAISILAKKLKVTSVIEGVENYEDFKLFSSLGFDIVQGYYFSKPLTKSEIIDYIKVNINNKIS
protein production: failed

MTDLLLDGSEADNAQTVLNAARIELLSPRLANQIAAGEVVERPASVIKELLENSLDSGARRIDIDVEQAGIKLLKVRDDGGGISSDDLPLALARHATSKIRDLEDLERVMSLGFRGEALASISSVARLTLTSRTRDADQAWQVETEGRDMDARVQPAAHPVGTSVEVRDLFFNTPARRKFLKAEKTEFDHLHEVIKRMALARFDVAFHLRHNGKTVLSLHEAHDDTARARRVSAICGPGFLEQALPIEIERNGLHLWGWVGLPTFSRSQADLQYFFVNGRAVRDKLVAHAVRQAYRDVLFNGRHPTFVLFFEVDPAAVDVNVHPTKHEVRFRDGRMVHDFLYGTLHRALGDVRPENQLGGSVPAAAEPRPTGPDAGEFGPQGEMRLANNVLEQPQGEPFARPAGGGSGSGYQYSPRPTTGVPVAEAQSAYREFFAPLPGTTPSALPESPSDIPPLGYALAQLKGIYILAENAHGLVLVDMHAAHERIMYERLKIAMANEGLSGQPLLVPESIAVSQREADCAEEHITTFQRLGFELQRLGPETLAIRQIPALLKQAEANRLVSDVLADLMEYGTSDRVQAHMNELLGTMACHGAIRANRRLAIPEMNGLLRDMENTERSGQCNHGRPTWTQMGLSDLDKLFLRGQ
protein production: failed

MCDYDEPLYLISVVAKILGVHPQTLRQYEKEGLIEPSRTDGKMRLYSQRDMDKIKTILRLTRDMGVNLAGVDIILRLKEKLDELDNLNKELQDALHKHSKNTKTPTKNLNTPTNFYELILFKK
protein production: failed

MSGFDLIIFDCDGVLVDSEIIAAQVESRLLTEAGYPISVEEMGERFAGMTWKNILLQVESEASIPLSASLLDKSEKLLDMRLERDVKIIDGVKFALSRLTTPRCICSNSSSHRLDMMLTKVGLKPYFAPHIYSAKDLGADRVKPKPDIFLHGAAQFGVSPDRVVVVEDSVHGIHGARAAGMRVIGFTGASHTYPSHADRLTDAGAETVISRMQDLPAVIAAMAEWEGAF
protein production: not failed

MAMADVTIRGAGIFGLSIAWACVLRGARVQVVDPFGPGAGSSGGLVGALAPHVPENWNAKKAFQFDSLIMAEGFWAGVEAAGGVSPGYGRTGRIQPLADERAVDLADERAENARTLWQGQAEWRVCPVDEMGSWCPPSPTGLVVHDTLSARMHPRRACAALVGALAVRGVEVLAEAPDRGQVIHATGIAGLEELNRARGRLVGTGVKGQAALLRFDAGRQAPQLFADTVHIVPHADGTLAIGSTSERDYDDPTSTDAALDTVLDRAMQAVPLLHGAEVIERWAGVRPRSRSRAPMLGAHPLYPDQFIANGGFKIGFGMAPKVAHVMAELVLEGQDNIPQDFRPEASL
protein production: failed

MEQKILSSEPRRSFSNEFKLQMVKLASQPGAXVARIAREHDINDNLLFKWLRLWQNERRISRRLPVTTSSGAGVELLPVEITPDEQKEPMAALTPLLSTPSQSTVSASSCKVEFRHGNMTLENPSPELLTVLIRELTGRGR
protein production: failed

MSVKKDWIAPLALLFVSFIWGATFVVVQNAMSFVGPFTFNGIRFLFAGIILLFVQMIFSKKTSKQDIKQSSLAGLTVGFFLCVGYVLQTFGLLYTTSSKAGFLTGLSIVMVPILSFIFLKQKATIFIVIGIAVATAGLYLLTAGDSFQLNIGDILVLGCAVAFAAHILVNGFFSKKISPLLLSTSQVLAVGMFSSICAFLFEDWEKLFSVALWTNASFLFALFLTSLFATSIAFFIQTSAQKHTSPTRVAIIFAMEPVFAALTGVLVANEQLSISAIIGCLCIFLGMVFVELPSKTKKEAQAA
protein production: failed

MSMTKSEVCVIIAAKNAARTIAVAIASALREPEAAEVVVVDDGSTDNTAEVARSADDGSGRLKVMRLDVNRGPSFARNAAIAGSKAPFISILDADDFFLEGRFRNLFAAADWDFAADNIMLIRDDATNDATKIVAPDFAADPEFLDFERFVEGNISRRRVQRGELGFLKPVISRAFLDRHRLRYDESLRLGEDYELYARAVAHGARFKVIRSCGYGAIVRADSLSGRHKTQDLKRLADADLALLAIDSLPEGSKAVLRRHERHVRDKYRLRNFLDVKAERGLASAAAYAFASQSNLVPIVQGVASDKLEALFRRVGLVSRQKRVPPLRFLMAGTSAGKER
protein production: failed

MVFIWSLIFIVILSVVFTTNIKKNYKGWYALASFISILVSIYEVMRIVSHPKLNGVILSIEQAFMKGNVAIAFFILVMFAGALSTKQVIGKKLMSIRAELAILGSILILPHGIIYFVRFLIIKLPKILNGKANATLYLIYISIGIIAFIIMIPLFITSFKSVRKRLGGFRWKKLHRWSYVFYCLIYLHIILALLNGKINFIKIILYTFIFMVYTVMKFIKHRNIKLRRKS
protein production: failed
